Test results published in US20210113652A1, “MASPIN-BASED INHIBITION OF OSTEOCLAST ACTIVITY AND PROMOTION OF BONE FORMATION” (Northwestern University, priority 2016, published 2021).

Experiments:
[1] = tested on: calvariae; test: New bone formation in ex vivo calvariae organ culture model; set-up: species or system BABL/c new-born mice; settings: 7 days organ culture
Text: FIG. 7. […] Panel A, calvariae were removed from 4 days-old BABL/c new-born mice and cultured in an ex vivo organ culture medium. They were either treated with or without concentrated conditional medium from mouse mammary tumor TM40D cells or maspin-expressing TM40D-Mp cells or with recombinant maspin (GST-Mp) with or without an anti-maspin antibody for 7 days. H&E staining of representative images were shown. Arrows indicate osteoblast cells. Arrowhead indicates new bone area. Panel B, quantitation of the average number of osteoblasts under different treatments listed in Panel A.

[2] = tested on: mouse tibiae inoculated with mammary tumor cells TM40D or maspin-expressing TM40D-Mp; test: Osteolytic bone degradation in tumor-inoculated BALB/c mice (X-ray, H&E, TRAP staining of tibiae); format: in vivo
Text: FIG. 1. […] Panel A-B: Representative X-ray radiographs of mouse tibiae inoculated with mammary tumor cells TM40D (Panel A) or maspin-expressing TM40D-Mp tumor cells (Panel B), at the end point of 4 weeks following tumor inoculation. Note that mice inoculated with TM40D tumors display severe osteolytic lesion comparing to that with TM40D-Mp cells. Panel E: Summary of osteolytic lesion data (radiography analysis) in 20 mice (10 mice/group) at 2-week and 4-week time points. Panel C: Histological analysis of bone section of tumor-inoculated tibiae by H&E staining. Arrow heads indicate osteoclastic cells. Panel D: TRAP (tartrate-resistant acid phosphatase) staining of osteoclastic cells in bone sections. Arrows indicate osteoclastic cells. Panel F: Summary of TRAP staining data of osteoclasts in mouse tibiae inoculated with TM40D or TM40D-Mp cells.

[3] = overexpression of maspin in vivo; cited from earlier work
[4] = Long-term treatment with maspin in animals; format: in vivo
Text: Because bone is tissue under constant balancing actions between bone-degrading osteoclasts and bone-forming osteoblasts, inhibiting the formation and activity of osteoclasts will favor or promote osteoblastic activity, thereby promoting new bone formation and bone wound healing. Further, maspin is naturally produced by osteoblasts in the bone microenvironment. This represents a previously unappreciated and unexploited mechanism for osteoblast-produced maspin counteracting the effect of osteclastic activity. […] Therefore, maspin may be delivered to human patients as a non-toxic therapeutic product against various bone diseases.

[5] = tested on: mature osteoclasts from RAW246.7; test: Osteoclast actin ring formation (phalloidin staining); format: cell-based; settings: RANKL 50 ng/ml pre-culture 8 days; 2 hours at 37° C.
Method: FIG. 6. Panels A-C: Maspin inhibits osteoclast actin ring formation. Osteoclasts display osteolytic activity by forming actin rings. RAW246.7 were pre-cultured with RANKL (50 ng/ml) for 8 days to form mature osteoclasts. Cells were first washed with cold PBS twice to disrupt actin rings, warm medium with RANKL were added to cell culture with or without Gst or GST-maspin and cells were then cultured for 2 hours at 37° C. Cells were then washed and stained with phalloidin for actin ring formation. Cells with strong and clear actin ring belts were counted as positive. Five fields of cell staining were counted for each sample and experiments repeated three times. The percentage of cells forming strong and clear actin rings was calculated.

[6] = tested on: primary bone marrow cells; test: Osteoclastogenesis in mouse primary bone marrow co-culture assay (TRAP staining); format: cell-based; settings: bone marrow cells co-cultured with TM40D-Mp vs TM40D cells; TRAP-positive cells with 2 or more nuclei
Text: FIG. 2. […] Osteoclastogenesis analyses of primary bone marrow cells co-cultured with breast cancer cells with or without maspin expression. (Panel A) Newly isolated primary bone marrow cells only (control). (Panel B) Bone marrow cells co-cultured with mammary tumor TM40D cells. (Panel C) Bone marrow cells co-cultured with maspin-expressing TM40D-Mp cells. (Panel D) Bone marrow cells co-cultured with TM40D-Mp cells and rabbit anti-maspin antibody. (Panel E) Bone marrow cells co-cultured with TM40D-Mp cells and rabbit IgG. (F) Summary of percentage of osteoclasts in co-cultured cells analyzed by TRAP staining. TRAP-positive cells containing 2 or more nuclei are defined as osteoclasts.

[7] = tested on: RAW246.7 cells; test: Differentiation assay of pre-osteoclastic RAW246.7 cells under RANKL (TRAP staining); format: cell-based; settings: maspin 0.1-10 ug/ml; RANKL 50-100 ng/ml; 8 days
Method: FIG. 3. […] RAW246.7 cells were treated with RANKL (50 -100 ng/ml) and different doses of maspin for 8 days, and cell cultures were used for TRAP staining.

B1: Maspin: Maspin (mammary serine protease inhibitor), a serpin protein encoded by the SERPINB5 gene; human wild-type is SEQ ID NO: 1 (protein, listed as Homo sapiens)
chain: MDALQLANSAFAVDLFKQLCEKEPLGNVLFSPICLSTSLSLAQVGAKGDTANEIGQVLHFENVKDIPFGFQTVTSDVNKLSSFYSLKLIKRLYVDKSLNLSTEFISSTKRPYAKELETVDFKDKLEETKGQINNSIKDLTDGHFENILADNSVNDQTKILVVNAAYFVGKWMKKFPESETKECPFRLNKTDTKPVQMMNMEATFCMGNIDSINCKIIELPFQNKHLSMFILLPKDVEDESTGLEKIEKQLNSESLSQWTNPSTMANAKVKLSIPKFKVEKMIDPKACLENLGLKHIFSEDTSDFSGMSETKGVALSNVIHKVCLEITEDGGDSIEVPGARILQHKDELNADHPFIYIIRHNKTRNIIFFGKFCSP
**Q.** With B1 as the molecule, how does the new bone formation [1] read?
**A.** promotes new bone formation

**Q.** And the “osteoclast numbers (TRAP staining) in mouse tibiae” value ([2]; TM40D-Mp vs TM40D tumor cells)?
**A.** significantly decreased osteoclast numbers

**Q.** What about the “osteolytic bone degradation (radiography)” value ([2]; tibiae inoculated with TM40D-Mp vs TM40D tumor cells, 2-week and 4-week time points) of the same molecule?
**A.** inhibits osteolytic bone degradation

**Q.** And the toxic side effects [3]?
**A.** does not have any observable toxic side effects

**Q.** What about the side effects [4] of the same molecule?
**A.** no side effects

**Q.** What about the “percentage of cells forming strong and clear actin rings” value [5] of the same molecule?
**A.** 53%

**Q.** And the osteoclast formation [6]?
**A.** inhibits osteoclast formation

**Q.** And the “osteoclast formation under RANKL stimulation” value [7]?
**A.** completely inhibits osteoclast formation
